Test results taken from article PMC9491713.

Biological target: cSFB-RBPJ protein purified from 293F cells, Q06330
Experiment: BLI
Conditions: remark: other sources report otherwise

- Kd: 47 nM
B1: FLAG-FBXO42 protein purified from 293F cells, Q6P3S6 1-717 (natural protein)
chain: MASSSDSEDDSFMAVDQEETVLEGTMDQDEEPHPVLEAEETRHNRSMSELPEEVLEYILSFLSPYQEHKTAALVCKQWYRLIKGVAHQCYHGFMKAVQEGNIQWESRTYPYPGTPITQRFSHSACYYDANQSMYVFGGCTQSSCNAAFNDLWRLDLNSKEWIRPLASGSYPSPKAGATLVVYKDLLVLFGGWTRPSPYPLHQPERFFDEIHTYSPSKNWWNCIVTTHGPPPMAGHSSCVIDDKMIVFGGSLGSRQMSNDVWVLDLEQWAWSKPNISGPSPHPRGGQSQIVIDDATILILGGCGGPNALFKDAWLLHMHSGPWAWQPLKVENEEHGAPELWCHPACRVGQCVVVFSQAPSGRAPLSPSLNSRPSPISATPPALVPETREYRSQSPVRSMDEAPCVNGRWGTLRPRAQRQTPSGSREGSLSPARGDGSPILNGGSLSPGTAAVGGSSLDSPVQAISPSTPSAPEGYDLKIGLSLAPRRGSLPDQKDLRLGSIDLNWDLKPASSSNPMDGMDNRTVGGSMRHPPEQTNGVHTPPHVASALAGAVSPGALRRSLEAIKAMSSKGPSASAALSPPLGSSPGSPGSQSLSSGETVPIPRPGPAQGDGHSLPPIARRLGHHPPQSLNVGKPLYQSMNCKPMQMYVLDIKDTKEKGRVKWKVFNSSSVVGPPETSLHTVVQGRGELIIFGGLMDKKQNVKYYPKTNALYFVRAKR
